Km data for one protein are collected here from ChEMBL document CHEMBL2074291, “Species differences in the transport activity for organic anions across the bile canalicular membrane” (J Pharmacol Exp Ther, 1999).

Substrate in this data set: N[C@@H](CCC(=O)N[C@H](CSc1ccc([N+](=O)[O-])cc1[N+](=O)[O-])C(=O)NCC(=O)O)C(=O)O
As to the kind of experiment: TP_TRANSPORTER: uptake in bile canalicular membrane vesicles from ddY mouse. It counts as functional, cell membranes, Bile canalicular membrane vesicle.

B1: ATP-binding cassette sub-family C member 2 (Mus musculus) (protein)
chain: MDEFCNSTFWNLSLLKSPEADLPLCFEQTVLVWIPLGFLWLLAPWQLYRIYRSRTKRFAITKFYLAKQVFVVCLLILAAIDLSLALTEDTGQATIPPVKYTNPILYLCTWLLVLVIQHCRQCCIQKNSWFLSMFWILSLLCGIFQFQTLIRALLQDSKSNMTYSCLFFVSYGFQIVILILSAFSESSDSTHAPSATASFLSSVTFSWYDSTVLKGYKHPLTIEDVWDIEENLKAKSLTSKFKTIMTKDLQKARQALQRRLKKSQQSPEGTSHGLTKKQSQSQDVLVLEDSKKKKKKSEATKDFPKSWLVKALFKTFYVVILKSFILKLAHDILLFLNPQLLKFLIGFVKDPDSYPWVGYIYAILMFSVTLIQSFFLQCYFQFCFVLGMTVRTTIIASVYKKALTLSNLARRQYTIGETVNLMSVDSQKLMDVTNYIHLLWSSVLQIALSIFFLWRELGPSILAGVGLMVLLVPVNGVLATKIRKIQVQNMKNKDKRLKIMNEILSGIKILKYFAWEPSFKEQVNSIRKKELRNLLRFSQLQTILIFILHLTPTLVSVITFSVYVLVDSQNVLNAEKAFTSITLFNILRFPLAMLPMVISSVIQASVSVDRLEQYLGSDDLDLSAIRHVCHFDKAVQFSEASFTWDRDLEATIQDVNLDIKPGQLVAVVGTVGSGKSSLISAMLGEMENVHGHITIKGSIAYVPQQAWIQNGTIKDNILFGSEYDEKKYQRVIEACALLPDLEMLPGGDMAEIGEKGINLSGGQKHRVSLARATYQDADIYILDDPLSAVDTHVGKHIFNKVVGPNGLLSGKTRILVTHGIHFLPQVDEIVVLGKGTILEKGSYSDLMDKKGVFAKNWKTFMKHSGPEGEATVDNDSEEEDGDCGLIPTVEEIPDDAASLTMRRENSLRRTLSRSSRSGSRRGKSLKSSLKIKSVNALNKKEEVVKGQKLIKKEFVETGKVKFSIYLKYLQAVGWWSLLFIVIFYVLNYVAFIGTNLWLSAWTSDSEKQNGTDNSPSQRDMRIGVFGALGIAQGIFLLSSSLWSIYACRNASKTLHRQLLTNILRAPMSFFDTTPTGRIVNRFAGDISTVDDTLPQTLRSWLLCFFGIVSTLVMICMATPIFIIIIIPLSILYVSVQVFYVATSRQLRRLDSVTKSPIYSHFSETVSGLPVIRAFEHQQRFLANSEKQIDTNQKCVFSWITSNRWLAIRLELVGNLIVFCSALLLVIYKNSLTGDTVGFVLSNALNITQTLNWLVRMTSEVETNIVAVERINEYINVDNEAPWVTDKKPPADWPKKGEIQFNNYQVRYRPELDLVLKGITCNIKSTEKVGVVGRTGAGKSSLTNCLFRILESAGGQIIIDGIDIASIGLHDLRGRLTIIPQDPILFSGNLRMNLDPFNKYSDEEIWRALELAHLKSFVAGLQLGLLHEVTEGGDNLSIGQRQLLCLGRAVLRKSKILVLDEATAAVDLETDSLIQTTIRNEFSQCTVITIAHRLHTIMDSDKIMVLDSGKIVEYGSPEELLSNMGPFYLMAKEAGIESVNHTEL
The term Km denotes the concentration of substrate that gives half-maximal velocity. For B1, the Michaelis-Menten constant (Km) was 25.5 µM.
